Results: patent US8114832

Columns and labels:
[1] = target: Human amyloid-β (1-40) Dutch type
[2] = target: T1, human fibrin α-chain(148-160) amyloid fragment with Lys157Gly mutation (FP13)
T1 chain: KRLEVDIDIGIRS

[3] = target: T2, non-amyloid fragment FP10 of human fibrin α-chain(148-157)
T2 chain: KRLEVDIDIK

[4] = target: T3, freshly dissolved FP13 K157G
T3 chain: KRLEVDIDIGIRS

[5] = target: human-modified gelatin (Gelofusine), stored at 4° C.
[6] = target: modified gelatin for infusion stored at 37° C.
mIAPP = target: T4, mIAPP
T4 sequence (P12968 38-74, species assumed, looked up): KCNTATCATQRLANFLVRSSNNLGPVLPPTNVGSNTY

[7] = target: glycated hemoglobin (Hb-AGE), P69905
Sequence of glycated hemoglobin (Hb-AGE), P69905 (P69905 2-142, chain 1 of 2): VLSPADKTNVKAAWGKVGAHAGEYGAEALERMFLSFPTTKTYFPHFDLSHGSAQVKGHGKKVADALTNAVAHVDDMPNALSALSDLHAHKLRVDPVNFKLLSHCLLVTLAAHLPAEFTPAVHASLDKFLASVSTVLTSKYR
Sequence of glycated hemoglobin (Hb-AGE), P69905 (chain, as listed by the source, chain 2 of 2): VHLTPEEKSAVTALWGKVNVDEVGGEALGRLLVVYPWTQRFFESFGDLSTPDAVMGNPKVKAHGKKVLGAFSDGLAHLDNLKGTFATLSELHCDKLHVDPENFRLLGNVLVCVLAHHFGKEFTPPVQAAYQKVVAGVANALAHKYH

[8] = target: T5, heat-denatured OVA (dOVA), P01012
T5 chain: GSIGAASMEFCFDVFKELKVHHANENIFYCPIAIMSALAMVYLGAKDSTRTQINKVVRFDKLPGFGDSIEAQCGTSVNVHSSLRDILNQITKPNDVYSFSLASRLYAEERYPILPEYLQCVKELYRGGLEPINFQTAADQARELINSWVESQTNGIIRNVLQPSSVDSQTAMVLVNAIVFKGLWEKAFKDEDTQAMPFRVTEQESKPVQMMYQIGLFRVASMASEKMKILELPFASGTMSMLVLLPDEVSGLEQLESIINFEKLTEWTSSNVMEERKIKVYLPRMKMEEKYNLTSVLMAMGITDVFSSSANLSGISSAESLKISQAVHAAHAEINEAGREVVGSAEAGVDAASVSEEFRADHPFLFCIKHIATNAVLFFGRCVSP

[9] = target: heat/acid denatured glucagon, P01275
Sequence of heat/acid denatured glucagon, P01275 (P01275 53-81): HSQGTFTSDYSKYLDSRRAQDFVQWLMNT

[10] = target: Native MSA (nMSA), P07724
Sequence of Native MSA (nMSA), P07724 (P07724 25-608): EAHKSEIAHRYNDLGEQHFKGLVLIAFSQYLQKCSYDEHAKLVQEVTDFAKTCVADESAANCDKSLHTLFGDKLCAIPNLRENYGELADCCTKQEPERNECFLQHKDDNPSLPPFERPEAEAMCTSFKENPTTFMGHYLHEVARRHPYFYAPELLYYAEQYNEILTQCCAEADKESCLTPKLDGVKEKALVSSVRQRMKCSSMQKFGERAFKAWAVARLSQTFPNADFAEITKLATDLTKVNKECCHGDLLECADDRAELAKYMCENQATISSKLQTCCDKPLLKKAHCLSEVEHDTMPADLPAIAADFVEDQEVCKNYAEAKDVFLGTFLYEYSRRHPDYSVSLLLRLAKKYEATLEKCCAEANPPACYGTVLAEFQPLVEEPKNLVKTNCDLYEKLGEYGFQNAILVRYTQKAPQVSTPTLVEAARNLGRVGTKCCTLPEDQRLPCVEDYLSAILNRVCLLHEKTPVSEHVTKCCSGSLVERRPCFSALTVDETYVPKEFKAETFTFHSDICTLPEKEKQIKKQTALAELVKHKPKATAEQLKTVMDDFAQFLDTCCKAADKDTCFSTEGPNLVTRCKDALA

[11] = target: reduced-alkylated MSA (alkyl-MSA), P07724
Sequence of reduced-alkylated MSA (alkyl-MSA), P07724 (P07724 25-608): as above

[12] = target: heat-denatured MSA, P07724
Sequence of heat-denatured MSA, P07724 (P07724 25-608): as above

Sequence of native Hb, P69905 (P69905 2-142, chain 1 of 2): as the sequence (P69905 2-142, chain 1 of 2) above
Sequence of native Hb, P69905 (chain, as listed by the source, chain 2 of 2): as the sequence (chain, as listed by the source, chain 2 of 2) above
Sequence of endostatin, P39060 (P39060 whole entry, looked up): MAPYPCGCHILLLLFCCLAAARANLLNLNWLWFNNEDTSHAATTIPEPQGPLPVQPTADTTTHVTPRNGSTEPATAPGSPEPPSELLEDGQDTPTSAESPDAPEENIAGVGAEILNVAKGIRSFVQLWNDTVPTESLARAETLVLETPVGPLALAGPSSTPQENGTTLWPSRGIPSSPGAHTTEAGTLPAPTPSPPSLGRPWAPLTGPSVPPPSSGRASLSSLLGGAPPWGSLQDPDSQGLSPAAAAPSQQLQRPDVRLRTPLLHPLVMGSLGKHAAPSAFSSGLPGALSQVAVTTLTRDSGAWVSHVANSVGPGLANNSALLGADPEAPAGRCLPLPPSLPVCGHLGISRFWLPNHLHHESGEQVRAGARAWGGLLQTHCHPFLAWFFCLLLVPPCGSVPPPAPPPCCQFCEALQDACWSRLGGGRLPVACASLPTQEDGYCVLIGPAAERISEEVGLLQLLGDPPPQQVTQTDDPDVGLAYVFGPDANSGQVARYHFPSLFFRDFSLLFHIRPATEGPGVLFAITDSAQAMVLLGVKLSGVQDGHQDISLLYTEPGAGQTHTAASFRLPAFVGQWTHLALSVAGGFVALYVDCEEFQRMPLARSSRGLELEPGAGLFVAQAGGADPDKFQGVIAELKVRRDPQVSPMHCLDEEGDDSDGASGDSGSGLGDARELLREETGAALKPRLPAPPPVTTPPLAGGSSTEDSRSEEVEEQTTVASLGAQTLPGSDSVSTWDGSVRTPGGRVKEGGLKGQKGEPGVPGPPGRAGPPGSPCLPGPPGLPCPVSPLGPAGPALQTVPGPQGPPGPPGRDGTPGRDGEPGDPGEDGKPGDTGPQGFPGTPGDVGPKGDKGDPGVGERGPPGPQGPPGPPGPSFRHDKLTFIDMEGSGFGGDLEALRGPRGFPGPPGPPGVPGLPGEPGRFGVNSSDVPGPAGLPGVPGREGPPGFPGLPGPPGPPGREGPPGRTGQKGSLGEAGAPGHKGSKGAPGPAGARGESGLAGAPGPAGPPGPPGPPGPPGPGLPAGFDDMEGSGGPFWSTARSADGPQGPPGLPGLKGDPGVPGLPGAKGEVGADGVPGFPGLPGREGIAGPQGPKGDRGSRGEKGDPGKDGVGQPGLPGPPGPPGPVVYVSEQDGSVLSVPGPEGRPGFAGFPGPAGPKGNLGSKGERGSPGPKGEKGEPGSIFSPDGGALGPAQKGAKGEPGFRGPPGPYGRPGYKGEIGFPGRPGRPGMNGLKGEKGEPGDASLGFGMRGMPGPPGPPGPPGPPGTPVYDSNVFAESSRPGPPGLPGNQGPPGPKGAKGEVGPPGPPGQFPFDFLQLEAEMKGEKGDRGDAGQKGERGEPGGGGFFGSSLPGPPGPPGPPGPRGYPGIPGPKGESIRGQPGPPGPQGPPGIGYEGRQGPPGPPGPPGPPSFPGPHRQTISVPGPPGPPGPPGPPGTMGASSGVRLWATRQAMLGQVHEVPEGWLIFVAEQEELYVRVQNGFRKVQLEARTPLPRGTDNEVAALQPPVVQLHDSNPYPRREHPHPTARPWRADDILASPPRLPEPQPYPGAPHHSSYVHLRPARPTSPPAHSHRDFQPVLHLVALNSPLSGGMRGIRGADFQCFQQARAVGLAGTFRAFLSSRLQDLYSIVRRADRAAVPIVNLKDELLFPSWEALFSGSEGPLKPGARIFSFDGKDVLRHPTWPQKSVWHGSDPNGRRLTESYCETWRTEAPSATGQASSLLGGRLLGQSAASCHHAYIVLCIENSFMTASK

B1: factor XII (protein)
chain: IPPWEAPKEHKYKAEEHTVVLTVTGEPCHFPFQYHRQLYHKCTHKGRPGPQPWCATTPNFDQDQRWGYCLEPKKVKDHCSKHSPCQKGGTCVNMPSGPHCLCPQHLTGNHCQKEKCFEPQLLRFFHKNEIWYRTEQAAVARCQCKGPDAHCQRLASQACRTNPCLHGGRCLEVEGHRLCHCPVGYTGAFCDVDTKASCYDGRGLSYRGLARTTLSGAPCQPWASEATYRNVTAEQARNWGLGGHAFCRNPDNDIRPWCFVLNRDRLSWEYCDLAQCQTPTQAAPPTPVSPRLHVPLMPAQPAPPKPQPTTRTPPQSQTPGALPAKREQPPSLTRNGPLSCGQRLRKSLSSMTRVVGGLVALRGAHPYIAALYWGHSFCAGSLIAPCWVLTAAHCLQDRPAPEDLTVVLGQERRNHSCEPCQTLAVRSYRLHEAFSPVSYQHDLALLRLQEDADGSCALLSPYVQPVCLPSGAARPSETTLCQVAGWGHQFEGAEEYASFLQEAQVPFLSLERCSAPDVHGSSILPGMLCAGFLEGGTDACQGDSGGPLVCEDQAAERRLTLQGIISWGSGCGDRNKPGVYTDVAYYLAWIREHTVS
auto-activation of purified factor XII, substrate S-2222 (native Hb, P69905): Freshly dissolved native Hb, ultracentrifuged for one hour at 100,000*g, and freshly dissolved FP13 K157G did not or hardly auto-activate factor XII (not shown) | auto-activation of purified factor XII, substrate S-2222 [1]: the potency of the Aβ(1-40) E22Q was somewhat lower | conversion of Chromozym PK, upon formation of kallikrein from prekallikrein by activated factor XII [1]: amyloid-like peptide aggregates of FP13 and Aβ stimulate the activation of factor XII | auto-activation of purified factor XII, substrate S-2222 [2]: FP13 K157G and Hb-AGE have a potency to induce auto-activation that was similar to the established surface activator DXS500k | conversion of Chromozym PK, upon formation of kallikrein from prekallikrein by activated factor XII [2]: amyloid-like peptide aggregates of FP13 and Aβ stimulate the activation of factor XII | conversion of Chromozym PK, upon formation of kallikrein from prekallikrein by activated factor XII [3]: non-amyloid controls FP10 and mIAPP do not activate factor XII | factor XII/kallikrein chromogenic assay (LAM12): cross-β structure conformation rich peptides LAM12 and TTR11 stimulate factor XII activation, to a similar extent as kaolin | auto-activation of purified factor XII, substrate S-2222 [4]: Freshly dissolved native Hb, ultracentrifuged for one hour at 100,000*g, and freshly dissolved FP13 K157G did not or hardly auto-activate factor XII (not shown) | chromogenic kallikrein activity assay [5]: Only gelatin kept at 37 °C activated factor XII | chromogenic kallikrein activity assay [6]: Only gelatin kept at 37 °C activated factor XII | conversion of Chromozym PK, upon formation of kallikrein from prekallikrein by activated factor XII (mIAPP): non-amyloid controls FP10 and mIAPP do not activate factor XII | factor XII/kallikrein chromogenic assay (TTR11): cross-β structure conformation rich peptides LAM12 and TTR11 stimulate factor XII activation, to a similar extent as kaolin | auto-activation of purified factor XII, substrate S-2222 [7]: FP13 K157G and Hb-AGE have a potency to induce auto-activation that was similar to the established surface activator DXS500k

B2: tissue-type plasminogen activator (tPA) (protein)
chain: SYQVICRDEKTQMIYQQHQSWLRPVLRSNRVEYCWCNSGRAQCHSVPVKSCSEPRCFNGGTCQQALYFSDFVCQCPEGFAGKCCEIDTRATCYEDQGISYRGTWSTAESGAECTNWNSSALAQKPYSGRRPDAIRLGLGNHNYCRNPDRDSKPWCYVFKAGKYSSEFCSTPACSEGNSDCYFGNGSAYRGTHSLTESGASCLPWNSMILIGKVYTAQNPSAQALGLGKHNYCRNPDGDAKPWCHVLKNRRLTWEYCDVPSCSTCGLRQYSQPQFRIKGGLFADIASHPWQAAIFAKHRRSPGERFLCGGILISSCWILSAAHCFQERFPPHHLTVILGRTYRVVPGEEEQKFEVEKYIVHKEFDDDTYDNDIALLQLKSDSSRCAQESSVVRTVCLPPADLQLPDWTECELSGYGKHEALSPFYSERLKEAHVRLYPSSRCTSQHLLNRTVTDNMLCAGDTRSGGPQANLHDACQGDSGGPLVCLNDGRMTLVGIISWGLGCGQKDVPGVYTKVTNYLDWIRDNMRP
chromogenic Plg-activation assay [2]: The positive control was amyloid fibrin peptide FP13 | Plg-activation assay [8]: The presence of the cross-β structure conformation was established with ThT fluorescence and Plg-activation assays and by TEM imaging | tPA activation assay [9]: a potent activator of tPA was obtained | tPA activation assay (native glucagon, P01275): at high glucagon concentration, also native glucagon has some tPA activating potential | Plg-activation assay [10]: native MSA enhanced ThT fluorescence to some extent, but this was not reflected by stimulation of tPA activation | tPA activation assay [11]: Although heat-denatured MSA and alkylated MSA enhance ThT fluorescence to a similar extent, they differ in tPA activating potential | tPA activation assay (endostatin, P39060): the absence of tPA activating properties in 100 µg ml^-1 endostatin | tPA activation assay [12]: Although heat-denatured MSA and alkylated MSA enhance ThT fluorescence to a similar extent, they differ in tPA activating potential
